Experimental data from patent US20250066490A1 (PROFOUNDBIO US, published 2025).

Tests used:
[1] = molecular target: T1, human CD70 expressed on the cell surface of tumor cell lines (human, UniProt P32970 1-193); assay: flow cytometry on DBTRG-05MG cells, PE anti-human Fc, MFI; same fit as Table 6, which prints it in nM
T1 construct: whole, on cells
T1 sequence (looked up): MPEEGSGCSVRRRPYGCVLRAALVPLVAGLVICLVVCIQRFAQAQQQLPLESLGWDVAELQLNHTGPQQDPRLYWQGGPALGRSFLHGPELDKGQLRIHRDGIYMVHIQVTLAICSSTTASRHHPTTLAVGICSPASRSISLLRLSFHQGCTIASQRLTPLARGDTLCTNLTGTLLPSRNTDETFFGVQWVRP
Description: (§1) The lead antibodies were tested for binding to renal carcinoma cells and glioblastoma cells expressing CD70 on the cell surface by flow cytometry. […] U251 cells were cultured with MEM medium containing of 10% FBS and 1% NEAA+1 mM sodium pyruvate. DBTRG-05MG cells were cultured with DMEM medium (Gibco, Cat #C11995500BT) containing of 10% FBS. Each of the lead antibodies and the controls were incubated for 30 mins with the different cell lines (3×10⁵ cells per well) in 0.2 ml FACS buffer (1×PBS with 0.1% BSA) at 4° C. Then, the cells were pelleted, washed, and incubated at 4° C. for 30 mins with 100 μl of 1:200 diluted PE-conjugated anti human Fc (Abcam, Ab98596) in FACS buffer. The cells were pelleted again, washed with PBS, resuspended in FACS buffer and analyzed by flow cytometer (Beckman, CytoFLEX).
(§2) Antibodies 2H8 and 2D2 had slightly higher binding ability to the cell lines than that of antibody 69A7.

[2] = molecular target: T1, human CD70 expressed on the cell …; assay: cell-based or functional assay
[3] = molecular target: T1, human CD70 expressed on the cell …; assay: flow cytometry on 786-O cells, PE anti-human Fc, MFI; same fit as Table 6, which prints it in nM
Description: as §1, §2

[4] = molecular target: T2, human CD70 recombinant protein (human, UniProt P32970 39-193, limits assumed); assay: ELISA, IgG titrated on coated human CD70 recombinant protein (2 µg/ml), anti-human Fc-HRP, OD450
T2 construct: May be the same reagent as ACRO CDL-H5246; also called CD70 protein
T2 sequence (looked up): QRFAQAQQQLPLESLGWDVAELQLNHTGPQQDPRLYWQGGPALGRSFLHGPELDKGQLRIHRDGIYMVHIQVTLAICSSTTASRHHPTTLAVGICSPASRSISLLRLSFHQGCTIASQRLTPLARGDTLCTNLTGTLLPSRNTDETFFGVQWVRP
Description: The binding specificity of the CD70 antibodies was tested by ELISA according to a standard protocol. Briefly, 96-well micro-plates were coated with 2 μg/ml of human or cynomolgus CD70 recombinant protein in PBS at 100 μl per well and incubated overnight at 4° C. The plates were washed twice with TBS+0.5% Tween20. 200 μL of blocking buffer (2% BSA in PBS) was added to each well, and the plates were incubated at 37° C. for 2 hours. The plates were washed using the wash buffer mentioned above. Serially diluted antibodies were added to the ELISA plates using 100 μl per well, and the plates were incubated for 1 hour at room temperature. Then plates were washed 3 times. HRP conjugated anti-human Fc antibody solution (Sigma, I18885-2ML, diluted with blocking buffer) was added to the plates using 100 μl per well. The plates were incubated at room temperature for 1 hour and then washed 3 times. Then the TMB solution was added to plates using 100 μl per well and the plates were placed at RT for 5-15 mins. Then the stop solution (2M H2SO4) was added using 50 μl per well. The absorbance was measured at A450 and A630.

[5] = molecular target: T3, CD70 ECD (antigen immobilized on the CM5 chip) (UniProt P32970 39-193); assay: SPR (Biacore T200), CD70 ECD on CM5 chip
T3 construct: extracellular domain; also called CD70 antigen
T3 sequence (looked up): T2 sequence (looked up)
Description: The immobilization of antigen CD70 ECD was performed at 25° C. with HBS-EP as the running buffer. Sensor chip surface of flow cells 1, 4 were activated by freshly mixed 50 mmol/L N-Hydroxy succinimide (NHS) and 200 mmol/L 1-ethyl-3-(3-dimethylaminopropyl) carbodiimide hydrochloride (EDC) for 420s (10 μL/min). Afterwards, CD70 antigen diluted in 10 mmol/L NaAC (pH 4.5) was injected into flow cell 4 to achieve conjugation of the appropriate Response Unit, while flow cell 1 was set as a blank. After the amine coupling reaction, the remaining active coupling sites on chip surface were blocked by 420s injection of 1 mol/L ethanolamine hydrochloride.
The assay was performed at 25° C. and the running buffer was HBS-EP. Diluted antibodies were injected over the surface of flow cells 1 and 4 during the association phase, followed by injecting running buffer as the dissociation phase. All the data were processed using Biacore T200 Evaluation software version 3.1. Flow cell 1 and a blank injection of buffer in each cycle were used as a double reference for Response Units subtraction. Kinetic data of the interaction between the antibodies and CD70 antigen were obtained through affinity measurement.

B1: 2E7, full IgG (antibody, V domains shown)
VH: QVQLQESGPGLVKPSETLSLTCTVSGGSVSSDYYYWSWIRQPPGKGLEWLGYIYYSGSTNYNPSLKSRVTISVDTSKNQFSLKLRSVTTADTAVYYCARGDGDFLGVCFDYWGQGTLVTVSS
VL: EIVLTQSPATLSLSPGERATLSCRASQSVSSYLAWYQQKPGQAPRLLIFDASNRATGIPARFSGSGSGTDFTLTISSLEPEDFAVYYCQQRSNWPLTFGGGTKVEIK
Q: For B1, which EC50 [1] is on record?
A: 0.917 µg/mL

Q: And the “Internalization rate (%) on 786-O” value [2]?
A: 62%

Q: What about the “Internalization rate (%) on Caki-1” value [2] of the same binder?
A: 51%

Q: What about the EC50 [3] of the same binder?
A: 0.403 µg/mL

Q: And the EC50 [4]?
A: 0.0161 µg/mL

Q: What about the “fold greater affinity than parent antibody 69A7” value [5] of the same binder?
A: 22 fold
